Patent publication US20240101668A1 (WUGEN, published 2024)

T1: huCLL1-K244-Avi-Tev-His (human, UniProt Q5QGZ9 65-265)
T1 construct: extracellular domain
T1 sequence (looked up): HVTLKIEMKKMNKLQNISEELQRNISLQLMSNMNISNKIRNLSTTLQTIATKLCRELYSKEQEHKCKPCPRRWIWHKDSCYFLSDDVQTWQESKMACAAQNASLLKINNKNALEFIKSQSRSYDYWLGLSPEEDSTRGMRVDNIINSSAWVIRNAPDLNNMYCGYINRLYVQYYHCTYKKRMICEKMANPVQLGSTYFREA

T2: huCLL1-Q244-Avi-Tev-His (human, UniProt Q5QGZ9 65-265)
T2 construct: extracellular domain; also called CLL-1 K244Q
T2 sequence (looked up): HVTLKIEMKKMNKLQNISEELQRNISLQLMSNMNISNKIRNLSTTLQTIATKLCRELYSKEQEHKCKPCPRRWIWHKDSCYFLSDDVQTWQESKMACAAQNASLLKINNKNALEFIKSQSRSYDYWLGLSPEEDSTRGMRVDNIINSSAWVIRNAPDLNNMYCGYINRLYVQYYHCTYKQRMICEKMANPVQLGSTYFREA


Columns and labels:
huCLL1-K244-Avi-Tev-His = molecular target: T1, huCLL1-K244-Avi-Tev-His; assay: BLI
Protocol: (§1) Discovered scFvs were analyzed for binding to huCD33-R69-His or huCD33-G69-Fc recombinant proteins (for anti-CD33 scFvs; for CLL-1 scFvs, huCLL1-K244-Avi-Tev-His or huCLL1-Q244-Avi-Tev-His were used; for FLT3, huFLT3-T227-His or huFLT3-M227-Fc were used) using BLI on a ForteBio Octet HTX instrument. Streptavidin-coated biosensors were loaded with biotinylated anti-V5 tag monoclonal antibody for 5 min and were then quenched and blocked with 20 μM amine-PEG2-Biotin for 5 min. scFvs were captured on biosensors from scFv clone periplasmic extracts. huCD33 (or huCLL-1, or huFLT3) proteins were then associated with the captured scFvs for 2 minutes, followed by dissociation with buffer (1×HBST [10 mM HEPES pH 7.4, 150 mM NaCl, 0.05% Tween-20], 1 g/L BSA) for 5 minutes. […] Data was fitted with 1:1 Langmuir equation and off-rate values were reported.
(§2) Analogous methods were used to assess selectivity of binding of polypeptides to CLL-1 K244 or CLL-1 Q244.

huCLL1-Q244-Avi-Tev-His = molecular target: T2, huCLL1-Q244-Avi-Tev-His; assay: BLI
Protocol: as §1, §2
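Further: Bio-layer interferometry with scFvs captured on biosensors via anti-V5 antibody, exposed 2 min to CLL-1 K244 or Q244 protein, 5 min dissociation, scored as binding, no binding or ambiguous.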

Binder	binding result (huCLL1-K244-Avi-Tev-His)	binding result (huCLL1-Q244-Avi-Tev-His)
Polypeptide No. 63 (scFv, V domains shown, scFv) VH: QVQLVQSGAEVKKPGASVKVSCKASGYTFTGYYVHWVRQAPGQGLEWMGVINPSGGGSPSYAQKFQGRVTMTRDTSTSTVYMELSSLRSEDTAVYYCARDRSDVDYGMDVWGQGTTVTVSS VL: DIQMTQSPSSLSASVGDRVTITCQASQDISNYLNWYQQKPGKAPKLLIYDASNLQSGVPSRFSGSGSGTDFTLTISSLQPEDFATYYCLQHNSYPLTFGGGTKVEIKR	binds	no binding
Polypeptide No. 71 (scFv, V domains shown, scFv) VH: EVQLLESGGGLVQPGGSLRLSCAASGFTFSNHYMSWVRQAPGKGLEWVAVIWPDGSKEYYADSVKGRFTISRDNSKNTLYLQMNSLRAEDTAVYYCAREDYYGSGMDYWGQGTLVTVSS VL: DIQMTQSPSSLSASVGDRVTITCQASQDISNYLNWYQQKPGKAPKLLIYGASTLQSGVPSRFSGSGSGTDFTLTISSLQPEDFATYYCQQYDSYPPTFGGGTKVEIKR	no binding	binds
Polypeptide No. 81 (scFv, V domains shown, scFv) VH: EVQLLESGGGLVQPGGSLRLSCAASGFTFSDHYMSWVRQAPGKGLEWVSIIYPDGKTYYADSVKGRFTISRDNSKNTLYLQMNSLRAEDTAVYYCAREGSYGDYDGMDVWGQGTTVTVSS VL: DIQMTQSPSSLSASVGDRVTITCQASQDISNYLNWYQQKPGKAPKLLIYGASTLQSGVPSRFSGSGSGTDFTLTISSLQPEDFATYYCQQSYSTPWTFGQGTKLEIKR	no binding	binds
Polypeptide No. 62 (scFv, V domains shown, scFv) VH: QVQLVQSGAEVKKPGASVKVSCKASGYTFTDHFVHWVRQAPGQGLEWMGWISAYNGNTNYAQKFQGRVTMTRDTSTSTVYMELSSLRSEDTAVYYCARAEYSYGFDYWGQGTLVTVSS VL: DIQMTQSPSSLSASVGDRVTITCRASQGIHNYLAWYQQKPGKAPKLLIYDASNLETGVPSRFSGSGSGTDFTLTISSLQPEDFATYYCQQTSSFPYTFGQGTKLEIKR	binds	no binding
Polypeptide No. 74 (scFv, V domains shown, scFv) VH: QVQLVQSGAEVKKPGSSVKVSCKASGYTFTKYEINWVRQAPGQGLEWMGGIIPIFGTANYAQKFQGRVTITADESTSTAYMELSSLRSEDTAVYYCARGSGWYTPLFDYWGQGTLVTVSS VL: DIQMTQSPSSLSASVGDRVTITCRASQGISNNLNWYQQKPGKAPKLLIYDASYLETGVPSRFSGSGSGTDFTLTISSLQPEDFATYYCQQSYSAPLTFGQGTKVEIKR	no binding	binds
Polypeptide No. 64 (scFv, V domains shown, scFv) VH: QVQLVQSGAEVKKPGASVKVSCKASGYTFTDYYMHWVRQAPGQGLEWMGLIDPSGGSTNSLQKFQGRVTMTRDTSTSTVYMELSSLRSEDTAVYYCARDVGFGELSFDIWGQGTTVTVSS VL: DIVMTQSPLSLPVTPGEPASISCRSSQSLLHSNGYNYLDWYLQKPGQSPQLLIYAASTLQSGVPDRFSGSGSGTDFTLKISRVEAEDVGVYYCMQGTHWPPTFGPGTKVDIKR	binds	no binding
Polypeptide No. 65 (scFv, V domains shown, scFv) VH: QVQLVQSGAEVKKPGASVKVSCKASGYTFTGYYMHWVRQAPGQGLEWMGWINPNSGGTNYAQKFQGRVTMTRDTSTSTVYMELSSLRSEDTAVYYCAREIGGYDNYYYYGMDVWGQGTTVTVSS VL: DIQMTQSPSSLSASVGDRVTITCRASQSIGTYLNWYQQKPGKAPKLLIYAASSLQSGVPSRFSGSGSGTDFTLTISSLQPEDFATYYCQQSYTDPWTFGQGTKVEIKR	binds	no binding
Polypeptide No. 66 (scFv, V domains shown, scFv) VH: QVQLVQSGAEVKKPGASVKVSCKASGYTFNTYYMHWVRQAPGQGLEWMGWMHPNTGNTGYAQKFQGRVTMTRDTSTSTVYMELSSLRSEDTAVYYCARGTTSDAFDIWGQGTMVTVSS VL: DIQMTQSPSSLSASVGDRVTITCRASQSIFSYLNWYQQKPGKAPKLLIYSASNLQSGVPSRFSGSGSGTDFTLTISSLQPEDFATYYCQQSYSTPITFGQGTKVEIKR	binds	no binding

Continued, values first:

binding result (huCLL1-K244-Avi-Tev-His)	binding result (huCLL1-Q244-Avi-Tev-His)	Binder
no binding	binds	Polypeptide No. 78 (scFv, V domains shown, scFv) VH: QVQLVQSGAEVKKPGSSVKVSCKASGGTFSRYPFSWVRQAPGQGLEWMGWMNPNNGDTGYAQKFQGRVTITADESTSTAYMELSSLRSEDTAVYYCARGDYPYMDVWGKGTTVTVSS VL: DIQMTQSPSSLSASVGDRVTITCQASQDISNYLNWYQQKPGKAPKLLIYDASNLETGVPSRFSGSGSGTDFTLTISSLQPEDFATYYCQQSYSIPYTFGQGTKLEIKR
no binding	binds	Polypeptide No. 84 (scFv, V domains shown, scFv) VH: QVQLVQSGAEVKKPGASVKVSCKASGGTFSNYAISWVRQAPGQGLEWMGWINPNSGGTNYAQKFQGRVTMTRDTSTSTVYMELSSLRSEDTAVYYCARVGYYDSSGGGMDVWGQGTTVTVSS VL: DIQMTQSPSSLSASVGDRVTITCRASQSISSWLAWYQQKPGKAPKLLIYDASNLETGVPSRFSGSGSGTDFTLTISSLQPEDFATYYCLQTHSFPLTFGPGTKVDIKR
no binding	binds	Polypeptide No. 76 (scFv, V domains shown, scFv) VH: QVQLVQSGAEVKKPGASVKVSCKASGYTFTTYYMHWVRQAPGQGLEWMGIINVSAGTTSYAQKFQGRVTMTRDTSTSTVYMELSSLRSEDTAVYYCAKEPYPHQSGWFFDYWGQGTLVTVSS VL: DIQMTQSPSSLSASVGDRVTITCQASQDINNYLNWYQQKPGKAPKLLIYDASNLETGVPSRFSGSGSGTDFTLTISSLQPEDFATYYCQQANSFPLTFGGGTKVEIKR
no binding	binds	Polypeptide No. 72 (scFv, V domains shown, scFv) VH: QVQLVQSGAEVKKPGASVKVSCKASGGTFSNYAISWVRQAPGQGLEWMGWISAYNGNSDYAQNLQGRVTMTRDTSTSTVYMELSSLRSEDTAVYYCAIGDYFDYWGQGTLVTVSS VL: DIQMTQSPSSLSASVGDRVTITCQASEDINKYLNWYQQKPGKAPKLLIYDASNLETGVPSRFSGSGSGTDFTLTISSLQPEDFATYYCQQANSFPLTFGQGTKVEIKR
no binding	binds	Polypeptide No. 67 (scFv, V domains shown, scFv) VH: QVQLVQSGAEVKKPGASVKVSCKASGDTFTRHYVHWVRQAPGQGLEWMGRVNPRDGRTNSAQKFQGRVTMTRDTSTSTVYMELSSLRSEDTAVYYCAKDMFPTVTGTYYYYGMDVWGQGTTVTVSS VL: DIQMTQSPSSLSASVGDRVTITCRASQGISSYLAWYQQKPGKAPKLLIYDASNLETGVPSRFSGSGSGTDFTLTISSLQPEDFATYYCQQASGFPYTFGQGTRLEIKR
no binding	binds	Polypeptide No. 82 (scFv, V domains shown, scFv) VH: QVQLVQSGAEVKKPGSSVKVSCKASGGTFSNYDISWVRQAPGQGLEWMGGIIPIFGTANYAQKFQGRVTITADESTSTAYMELSSLRSEDTAVYYCAREAEEGGWFDPWGQGTLVTVSS VL: EIVMTQSPATLSVSPGERATLSCRASQSVSSYLAWYQQKPGQAPRLLIYGASTRATGIPARFSGSGSGTEFTLTISSLQSEDFAVYYCQQYAFSPITFGQGTKLEIKR
no binding	binds	Polypeptide No. 88 (scFv, V domains shown, scFv) VH: QVQLVQSGAEVKKPGASVKVSCKASGYTFTGYHIHWVRQAPGQGLEWMGRINPNSGGTDYAQKFQGRVTMTRDTSTSTVYMELSSLRSEDTAVYYCARETYSGSYEESFDYWGQGTLVTVSS VL: not shown
no binding	binds	Polypeptide No. 68 (scFv, V domains shown, scFv) VH: QVQLVQSGAEVKKPGASVKVSCKASGYTFSSYDINWVRQAPGQGLEWVGWINPRNGGTDYAQKFQGRVTMTRDTSTSTVYMELSSLRSEDTAVYYCARHRWELDSFDYWGQGTLVTVSS VL: DIQMTQSPSSLSASVGDRVTITCRASQSISNYLNWYQQKPGKAPKLLIYATSSLQSGVPSRFSGSGSGTDFTLTISSLQPEDFATYYCQQGYNIPFTFGQGTKLEIKR
no binding	binds	Polypeptide No. 70 (scFv, V domains shown, scFv) VH: EVQLLESGGGLVQPGGSLRLSCAASGMSVTSNHMSWVRQAPGKGLEWVSSIYPDGKTYYADSVKGRFTISRDNSKNTLYLQMNSLRAEDTAVYYCARDEEDWFDPWGQGTLVTVSS VL: DIQMTQSPSSLSASVGDRVTITCQASQSISNWLAWYQQKPGKAPKLLIYAASTLQSGVPSRFSGSGSGTDFTLTISSLQPEDFATYYCQQSYSTPWTFGQGTKVEIKR
no binding	binds	Polypeptide No. 80 (scFv, V domains shown, scFv) VH: QVQLVQSGAEVKKPGASVKVSCKASGFTFTSYYMHWVRQAPGQGLEWMGWMNPNSGNTGYAQRFQGRVTMTRDTSTSTVYMELSSLRSEDTAVYYCARGHSRTDYGMDVWGQGTTVTVSS VL: DIQMTQSPSSLSASVGDRVTITCRASQSISSWLAWYQQKPGKAPKLLIYDTSSLQSGVPSRFSGSGSGTDFTLTISSLQPEDFATYYCQQGYSTPLTFGQGTKVEIKR
no binding	binds	Polypeptide No. 86 (scFv, V domains shown, scFv) VH: QVQLVQSGAEVKKPGASVKVSCKASGYTFTTYGISWVRQAPGQGLEWMGWINPNSGDTNYAQKFQGRVTMTRDTSTSTVYMELSSLRSEDTAVYYCARLTTATDSFDLWGRGTLVTVSS VL: not shown
